Assay results from patent US20260015399A1 (Boehringer Ingelheim, published 2026).
*1 amine or outer side, *2 acyl side, *3 side chain or, on linkers, in order; H or OH if unused. Side-chain parts run from the residue outwards. The star is where a group is joined. C18 diacid = O=C(O)CCCCCCCCCCCCCCCCC(=O)*; γGlu = O=C(O)[C@H](CCC(=O)[*:2])N[*:1]; Isovaleryl = CC(C)CC(=O)*; Ahx = NCCCCCC(=O)O

T1: human NPY2 receptor (human, UniProt P49146 1-381)
T1 construct: whole, on cells; also called hNPY2-R; hNPY2R
T1 sequence (looked up): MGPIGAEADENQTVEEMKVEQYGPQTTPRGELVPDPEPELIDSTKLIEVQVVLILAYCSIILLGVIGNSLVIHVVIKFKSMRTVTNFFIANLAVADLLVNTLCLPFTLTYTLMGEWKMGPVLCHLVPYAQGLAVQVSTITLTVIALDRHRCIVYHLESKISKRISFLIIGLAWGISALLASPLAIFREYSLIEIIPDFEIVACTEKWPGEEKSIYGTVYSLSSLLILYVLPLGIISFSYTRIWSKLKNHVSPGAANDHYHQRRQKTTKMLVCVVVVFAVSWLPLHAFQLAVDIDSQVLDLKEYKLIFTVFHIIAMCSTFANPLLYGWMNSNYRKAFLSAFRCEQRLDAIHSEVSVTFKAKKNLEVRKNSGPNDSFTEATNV

B1: Compound 97 (peptide)
peptide: Isovaleryl-APEK([Ahx-γGlu-C18 diacid])PEEDATPEEIQRYYLSLRHYYNWLTRQRY-NH2
SMILES: CC[C@H](C)[C@H](NC(=O)[C@H](CCC(=O)O)NC(=O)[C@H](CCC(=O)O)NC(=O)[C@@H]1CCCN1C(=O)[C@@H](NC(=O)[C@H](C)NC(=O)[C@H](CC(=O)O)NC(=O)[C@H](CCC(=O)O)NC(=O)[C@H](CCC(=O)O)NC(=O)[C@@H]1CCCN1C(=O)[C@H](CCCCNC(=O)CCCCCNC(=O)CC[C@H](NC(=O)CCCCCCCCCCCCCCCCC(=O)O)C(=O)O)NC(=O)[C@H](CCC(=O)O)NC(=O)[C@@H]1CCCN1C(=O)[C@H](C)NC(=O)CC(C)C)[C@@H](C)O)C(=O)N[C@@H](CCC(N)=O)C(=O)N[C@@H](CCCNC(=N)N)C(=O)N[C@@H](Cc1ccc(O)cc1)C(=O)N[C@@H](Cc1ccc(O)cc1)C(=O)N[C@@H](CC(C)C)C(=O)N[C@@H](CO)C(=O)N[C@@H](CC(C)C)C(=O)N[C@@H](CCCNC(=N)N)C(=O)N[C@@H](Cc1c[nH]cn1)C(=O)N[C@@H](Cc1ccc(O)cc1)C(=O)N[C@@H](Cc1ccc(O)cc1)C(=O)N[C@@H](CC(N)=O)C(=O)N[C@@H](Cc1c[nH]c2ccccc12)C(=O)N[C@@H](CC(C)C)C(=O)N[C@H](C(=O)N[C@@H](CCCNC(=N)N)C(=O)N[C@@H](CCC(N)=O)C(=O)N[C@@H](CCCNC(=N)N)C(=O)N[C@@H](Cc1ccc(O)cc1)C(N)=O)[C@@H](C)O
B2: Compound 100 (peptide)
peptide: Isovaleryl-APEK([Ahx-γGlu-C18 diacid])PEADATPEELQRYYIALRHYYNWLTRQRY-NH2
SMILES: CC[C@H](C)[C@H](NC(=O)[C@H](Cc1ccc(O)cc1)NC(=O)[C@H](Cc1ccc(O)cc1)NC(=O)[C@H](CCCNC(=N)N)NC(=O)[C@H](CCC(N)=O)NC(=O)[C@H](CC(C)C)NC(=O)[C@H](CCC(=O)O)NC(=O)[C@H](CCC(=O)O)NC(=O)[C@@H]1CCCN1C(=O)[C@@H](NC(=O)[C@H](C)NC(=O)[C@H](CC(=O)O)NC(=O)[C@H](C)NC(=O)[C@H](CCC(=O)O)NC(=O)[C@@H]1CCCN1C(=O)[C@H](CCCCNC(=O)CCCCCNC(=O)CC[C@H](NC(=O)CCCCCCCCCCCCCCCCC(=O)O)C(=O)O)NC(=O)[C@H](CCC(=O)O)NC(=O)[C@@H]1CCCN1C(=O)[C@H](C)NC(=O)CC(C)C)[C@@H](C)O)C(=O)N[C@@H](C)C(=O)N[C@@H](CC(C)C)C(=O)N[C@@H](CCCNC(=N)N)C(=O)N[C@@H](Cc1c[nH]cn1)C(=O)N[C@@H](Cc1ccc(O)cc1)C(=O)N[C@@H](Cc1ccc(O)cc1)C(=O)N[C@@H](CC(N)=O)C(=O)N[C@@H](Cc1c[nH]c2ccccc12)C(=O)N[C@@H](CC(C)C)C(=O)N[C@H](C(=O)N[C@@H](CCCNC(=N)N)C(=O)N[C@@H](CCC(N)=O)C(=O)N[C@@H](CCCNC(=N)N)C(=O)N[C@@H](Cc1ccc(O)cc1)C(N)=O)[C@@H](C)O
B3: Compound 105 (peptide)
peptide: Isovaleryl-APEK([Ahx-γGlu-C18 diacid])PEEDATQEELQRYYVSLRHYYNWLTRQRY-NH2
SMILES: CC(C)CC(=O)N[C@@H](C)C(=O)N1CCC[C@H]1C(=O)N[C@@H](CCC(=O)O)C(=O)N[C@@H](CCCCNC(=O)CCCCCNC(=O)CC[C@H](NC(=O)CCCCCCCCCCCCCCCCC(=O)O)C(=O)O)C(=O)N1CCC[C@H]1C(=O)N[C@@H](CCC(=O)O)C(=O)N[C@@H](CCC(=O)O)C(=O)N[C@@H](CC(=O)O)C(=O)N[C@@H](C)C(=O)N[C@H](C(=O)N[C@@H](CCC(N)=O)C(=O)N[C@@H](CCC(=O)O)C(=O)N[C@@H](CCC(=O)O)C(=O)N[C@@H](CC(C)C)C(=O)N[C@@H](CCC(N)=O)C(=O)N[C@@H](CCCNC(=N)N)C(=O)N[C@@H](Cc1ccc(O)cc1)C(=O)N[C@@H](Cc1ccc(O)cc1)C(=O)N[C@H](C(=O)N[C@@H](CO)C(=O)N[C@@H](CC(C)C)C(=O)N[C@@H](CCCNC(=N)N)C(=O)N[C@@H](Cc1c[nH]cn1)C(=O)N[C@@H](Cc1ccc(O)cc1)C(=O)N[C@@H](Cc1ccc(O)cc1)C(=O)N[C@@H](CC(N)=O)C(=O)N[C@@H](Cc1c[nH]c2ccccc12)C(=O)N[C@@H](CC(C)C)C(=O)N[C@H](C(=O)N[C@@H](CCCNC(=N)N)C(=O)N[C@@H](CCC(N)=O)C(=O)N[C@@H](CCCNC(=N)N)C(=O)N[C@@H](Cc1ccc(O)cc1)C(N)=O)[C@@H](C)O)C(C)C)[C@@H](C)O
B4: Compound 107 (peptide)
peptide: Isovaleryl-APEK([Ahx-γGlu-C18 diacid])PEEDAEPEETQRYYVSLRHYYNWLTRQRY-NH2
SMILES: CC(C)CC(=O)N[C@@H](C)C(=O)N1CCC[C@H]1C(=O)N[C@@H](CCC(=O)O)C(=O)N[C@@H](CCCCNC(=O)CCCCCNC(=O)CC[C@H](NC(=O)CCCCCCCCCCCCCCCCC(=O)O)C(=O)O)C(=O)N1CCC[C@H]1C(=O)N[C@@H](CCC(=O)O)C(=O)N[C@@H](CCC(=O)O)C(=O)N[C@@H](CC(=O)O)C(=O)N[C@@H](C)C(=O)N[C@@H](CCC(=O)O)C(=O)N1CCC[C@H]1C(=O)N[C@@H](CCC(=O)O)C(=O)N[C@@H](CCC(=O)O)C(=O)N[C@H](C(=O)N[C@@H](CCC(N)=O)C(=O)N[C@@H](CCCNC(=N)N)C(=O)N[C@@H](Cc1ccc(O)cc1)C(=O)N[C@@H](Cc1ccc(O)cc1)C(=O)N[C@H](C(=O)N[C@@H](CO)C(=O)N[C@@H](CC(C)C)C(=O)N[C@@H](CCCNC(=N)N)C(=O)N[C@@H](Cc1c[nH]cn1)C(=O)N[C@@H](Cc1ccc(O)cc1)C(=O)N[C@@H](Cc1ccc(O)cc1)C(=O)N[C@@H](CC(N)=O)C(=O)N[C@@H](Cc1c[nH]c2ccccc12)C(=O)N[C@@H](CC(C)C)C(=O)N[C@H](C(=O)N[C@@H](CCCNC(=N)N)C(=O)N[C@@H](CCC(N)=O)C(=O)N[C@@H](CCCNC(=N)N)C(=O)N[C@@H](Cc1ccc(O)cc1)C(N)=O)[C@@H](C)O)C(C)C)[C@@H](C)O
B5: Compound 102 (peptide)
peptide: Isovaleryl-APEK([Ahx-γGlu-C18 diacid])PEEDATLEELQRYYVSLRHYYNWLTRQRY-NH2
SMILES: CC(C)CC(=O)N[C@@H](C)C(=O)N1CCC[C@H]1C(=O)N[C@@H](CCC(=O)O)C(=O)N[C@@H](CCCCNC(=O)CCCCCNC(=O)CC[C@H](NC(=O)CCCCCCCCCCCCCCCCC(=O)O)C(=O)O)C(=O)N1CCC[C@H]1C(=O)N[C@@H](CCC(=O)O)C(=O)N[C@@H](CCC(=O)O)C(=O)N[C@@H](CC(=O)O)C(=O)N[C@@H](C)C(=O)N[C@H](C(=O)N[C@@H](CC(C)C)C(=O)N[C@@H](CCC(=O)O)C(=O)N[C@@H](CCC(=O)O)C(=O)N[C@@H](CC(C)C)C(=O)N[C@@H](CCC(N)=O)C(=O)N[C@@H](CCCNC(=N)N)C(=O)N[C@@H](Cc1ccc(O)cc1)C(=O)N[C@@H](Cc1ccc(O)cc1)C(=O)N[C@H](C(=O)N[C@@H](CO)C(=O)N[C@@H](CC(C)C)C(=O)N[C@@H](CCCNC(=N)N)C(=O)N[C@@H](Cc1c[nH]cn1)C(=O)N[C@@H](Cc1ccc(O)cc1)C(=O)N[C@@H](Cc1ccc(O)cc1)C(=O)N[C@@H](CC(N)=O)C(=O)N[C@@H](Cc1c[nH]c2ccccc12)C(=O)N[C@@H](CC(C)C)C(=O)N[C@H](C(=O)N[C@@H](CCCNC(=N)N)C(=O)N[C@@H](CCC(N)=O)C(=O)N[C@@H](CCCNC(=N)N)C(=O)N[C@@H](Cc1ccc(O)cc1)C(N)=O)[C@@H](C)O)C(C)C)[C@@H](C)O
B6: Compound 108 (peptide)
peptide: Isovaleryl-APEK([Ahx-γGlu-C18 diacid])PEADASEEELQRYYVSLRHYYNWLTRQRY-NH2
SMILES: CC(C)CC(=O)N[C@@H](C)C(=O)N1CCC[C@H]1C(=O)N[C@@H](CCC(=O)O)C(=O)N[C@@H](CCCCNC(=O)CCCCCNC(=O)CC[C@H](NC(=O)CCCCCCCCCCCCCCCCC(=O)O)C(=O)O)C(=O)N1CCC[C@H]1C(=O)N[C@@H](CCC(=O)O)C(=O)N[C@@H](C)C(=O)N[C@@H](CC(=O)O)C(=O)N[C@@H](C)C(=O)N[C@@H](CO)C(=O)N[C@@H](CCC(=O)O)C(=O)N[C@@H](CCC(=O)O)C(=O)N[C@@H](CCC(=O)O)C(=O)N[C@@H](CC(C)C)C(=O)N[C@@H](CCC(N)=O)C(=O)N[C@@H](CCCNC(=N)N)C(=O)N[C@@H](Cc1ccc(O)cc1)C(=O)N[C@@H](Cc1ccc(O)cc1)C(=O)N[C@H](C(=O)N[C@@H](CO)C(=O)N[C@@H](CC(C)C)C(=O)N[C@@H](CCCNC(=N)N)C(=O)N[C@@H](Cc1c[nH]cn1)C(=O)N[C@@H](Cc1ccc(O)cc1)C(=O)N[C@@H](Cc1ccc(O)cc1)C(=O)N[C@@H](CC(N)=O)C(=O)N[C@@H](Cc1c[nH]c2ccccc12)C(=O)N[C@@H](CC(C)C)C(=O)N[C@H](C(=O)N[C@@H](CCCNC(=N)N)C(=O)N[C@@H](CCC(N)=O)C(=O)N[C@@H](CCCNC(=N)N)C(=O)N[C@@H](Cc1ccc(O)cc1)C(N)=O)[C@@H](C)O)C(C)C

What follows are binders tested against T1, human NPY2 receptor (assay: RLB: displacement of 125I-PYY(1-36) from hNPY2R membranes).

Binder | Ki [nM]
B1 | 4.23
B2 | 1.01
B3 | 5.97
B4 | 5.13
B5 | 7.15
B6 | 2.77
